Results on one substance are retold here after patent US20100239590A1.

This assay deals with human IL-17RC on HS68 foreskin fibroblast cells (human) (UniProt Q8NAC3). In words: cell-based or functional assay.
Chain of UniProt Q8NAC3 (Q8NAC3 21-791): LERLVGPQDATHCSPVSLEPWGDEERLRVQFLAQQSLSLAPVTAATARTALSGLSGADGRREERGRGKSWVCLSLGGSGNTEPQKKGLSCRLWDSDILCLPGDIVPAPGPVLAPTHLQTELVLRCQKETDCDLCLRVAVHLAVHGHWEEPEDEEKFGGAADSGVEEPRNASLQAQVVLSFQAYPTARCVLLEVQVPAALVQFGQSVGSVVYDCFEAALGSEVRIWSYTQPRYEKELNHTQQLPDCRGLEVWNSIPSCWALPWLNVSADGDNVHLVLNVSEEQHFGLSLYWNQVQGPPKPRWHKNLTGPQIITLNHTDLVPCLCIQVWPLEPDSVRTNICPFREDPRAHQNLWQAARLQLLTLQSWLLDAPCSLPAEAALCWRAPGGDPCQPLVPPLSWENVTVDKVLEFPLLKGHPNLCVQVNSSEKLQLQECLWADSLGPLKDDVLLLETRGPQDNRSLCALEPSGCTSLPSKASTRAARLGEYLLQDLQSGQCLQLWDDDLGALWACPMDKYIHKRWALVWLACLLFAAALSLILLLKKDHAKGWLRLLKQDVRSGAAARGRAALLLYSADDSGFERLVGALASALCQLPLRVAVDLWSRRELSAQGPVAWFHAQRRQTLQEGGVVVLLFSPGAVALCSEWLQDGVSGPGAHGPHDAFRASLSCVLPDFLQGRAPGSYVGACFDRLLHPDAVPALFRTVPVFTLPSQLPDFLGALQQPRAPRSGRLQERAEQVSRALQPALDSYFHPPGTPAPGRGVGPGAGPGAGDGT

“human IL-17A (from UniProt Q16552 24-155) (ligand)” registered an IL-6 induction in HS68 cells, EC50 of 5 to 10 ng/mL.
